Data set [1] deals with the molecule itself. In words: non-reducing SDS-PAGE.
Data set [2] deals with the molecule itself. Kind of data set: native gel or EMSA.
Data set [3] concerns the molecule itself. Kind of data set: reducing SDS-PAGE and immunoblot of parasite lysate.
Data set [4] concerns the molecule itself. In words: SDS-PAGE after LAFS treatment.

B1: recombinant Plasmodium falciparum 3D7 60S stalk ribosomal protein P2, 6x His-tag (natural protein, UniProt O00806 1-112, looked up)
chain: MAMKYVAAYLMCVLGGNENPSTKEVKNVLGAVNADVEDEVLNNFIDSLKGKSCHELITDGLKKLQNIGGGVAAAPAGAAAVETAEAKKEDKKEEKKEEEEEEEDDLGFSLFG
Consider B1, for which the “stoichiometry N” value in data set [1] amounted to 2; in data set [2], 4.

B2: PfP2-HA of transgenic P. falciparum 3D7 parasites (natural protein, Plasmodium falciparum 3D7, UniProt O00806 1-112, looked up)
chain: B1 chain
Consider B2, for which, in data set [3], the “stoichiometry N” value turned out to be 4.

B3: rec.PfP2 pre-reduced and alkylated with iodoacetamide (natural protein, Plasmodium falciparum 3D7, UniProt O00806 1-112, looked up)
chain: B1 chain
modifications: all cysteine residues pre-reduced and alkylated with Iodoacetamide (IAA)
In the case of B3, the “stoichiometry N” value in data set [4] came out at 4.

B4: Plasmodium falciparum P2 protein, endogenous in wild type 3D7 parasites (natural protein, UniProt O00806 1-112, looked up)
chain: B1 chain
For B4, the “stoichiometry N” value in data set [3] amounted to 4.

Values taken from doi:10.1101/2022.06.11.495734 (bioRxiv, 2022).
